From article PMC4176178, “An evolutionarily conserved interaction of tumor suppressor protein Pdcd4 with the poly(A)-binding protein contributes to translation suppression by Pdcd4”

Key:
GST-Pdcd4 wt = molecular target: T1, GST-Pdcd4 wt (human, UniProt Q53EL6 1-469); assay: EMSA; EMSA: 10 mM Tris-HCl pH 7.8, 100 mM NaCl, 1 mM EDTA, 2% ficoll, 30 min on ice; blot: 10 mM Tris-HCl pH 7.5, 5 mM KCl, 2 mM MgCl2, room temperature; poly(U): 10; settings: protein: recombinant; tags: GST; label: 5' 32P; single strand
T1 sequence: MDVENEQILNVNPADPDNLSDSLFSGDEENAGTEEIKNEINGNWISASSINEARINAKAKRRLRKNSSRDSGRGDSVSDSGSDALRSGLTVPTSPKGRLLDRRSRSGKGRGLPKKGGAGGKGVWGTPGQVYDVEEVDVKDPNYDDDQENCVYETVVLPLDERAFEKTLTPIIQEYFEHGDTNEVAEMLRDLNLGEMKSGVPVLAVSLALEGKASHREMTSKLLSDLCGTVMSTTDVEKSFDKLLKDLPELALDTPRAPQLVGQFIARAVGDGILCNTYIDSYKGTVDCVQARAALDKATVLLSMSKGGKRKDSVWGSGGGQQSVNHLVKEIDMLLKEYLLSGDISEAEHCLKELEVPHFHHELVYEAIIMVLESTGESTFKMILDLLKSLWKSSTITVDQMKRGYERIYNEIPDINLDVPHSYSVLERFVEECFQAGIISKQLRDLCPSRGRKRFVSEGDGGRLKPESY

His-PABP-RRM1-4 = His-PABP-RRM1-4 (mouse, UniProt P29341 1-375); assay: as above; settings: protein: recombinant; tags: His; label: 5' 32P; single strand
Chain of His-PABP-RRM1-4 (P29341 1-375): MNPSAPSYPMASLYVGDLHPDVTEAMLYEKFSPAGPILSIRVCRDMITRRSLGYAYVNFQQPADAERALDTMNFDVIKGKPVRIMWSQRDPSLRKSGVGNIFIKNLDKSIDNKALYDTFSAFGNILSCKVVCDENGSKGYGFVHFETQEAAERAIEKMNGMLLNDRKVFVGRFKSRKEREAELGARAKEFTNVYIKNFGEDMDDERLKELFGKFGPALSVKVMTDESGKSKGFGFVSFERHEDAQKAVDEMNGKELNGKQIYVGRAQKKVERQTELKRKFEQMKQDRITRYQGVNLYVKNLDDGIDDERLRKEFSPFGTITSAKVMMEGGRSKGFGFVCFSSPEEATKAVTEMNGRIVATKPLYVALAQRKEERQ

B1: oligo(A)25 (ssRNA)
RNA: AAAAAAAAAAAAAAAAAAAAAAAAA
- binding result (GST-Pdcd4 wt): no binding
- binding result (His-PABP-RRM1-4): binds
